# Where two headings read alike, the source gives them in different places.
# Columns and labels:
# Experiment in all cases: cryo-EM structure
# [1] = biological target: Angavokeley (AngV) fusion (F) protein ectodomain (Angavokeley virus (AngV))
# [2] = biological target: Angavokeley (AngV) fusion (F) protein ectodomain (Angavokeley virus (AngV)); remark: listed apart in the source
# [3] = biological target: Hendravirus alpha2 -F protein (Hendra virus) (UniProt O89342)
Substance,stoichiometry N [1],stoichiometry N [2],stoichiometry N [3]
Angavokeley (AngV) fusion (F) protein ectodomain (domain or fragment),6,3,–
Hendravirus alpha2 -F protein (from UniProt O89342 27-494) (domain or fragment),–,–,6

# — article doi:10.64898/2025.12.08.693081
